Numbering of substitutions follows the chain as printed.
How the values were obtained:
Assay in all cases: crystal structure; sitting-drop vapor diffusion, ammonium sulfate, 0.1 M HEPES pH 7.5, 0.2 M NaCl, 25% glycerol; space group C222_(1), two molecules (A/B dimer) in the asymmetric unit, tetramer by the crystallographic two-fold axis
Details in all cases: both partners purified
[1] = target: T1, NylCp2-G^122 alpha subunit (D122G) (Arthrobacter, UniProt Q79F77 1-266, D122G)
T1 construct: NylCp2 alpha subunit with D122G; also called α subunit of NylCp2-G^122; source: E. coli JM109, purified with the beta subunit as the active enzyme
T1 sequence (looked up): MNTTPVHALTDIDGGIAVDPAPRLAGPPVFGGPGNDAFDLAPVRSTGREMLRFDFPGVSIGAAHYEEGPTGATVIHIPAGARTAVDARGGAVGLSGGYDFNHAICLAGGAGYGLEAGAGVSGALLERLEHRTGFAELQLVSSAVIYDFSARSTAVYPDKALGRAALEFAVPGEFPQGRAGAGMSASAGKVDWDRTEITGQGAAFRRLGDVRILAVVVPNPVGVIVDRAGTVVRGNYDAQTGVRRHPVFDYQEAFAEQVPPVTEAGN

[2] = target: T2, NylCp2-R^122 alpha subunit (D122R) (Arthrobacter, UniProt Q79F77 1-266, D122R)
T2 construct: NylCp2 alpha subunit with D122R; also called α subunit of NylCp2-R^122; source: E. coli JM109, purified with the beta subunit as the active enzyme
T2 sequence (looked up): T1 sequence (looked up) with G122R

[3] = target: T3, NylCp2-K^122 alpha subunit (D122K) (Arthrobacter, UniProt Q79F77 1-266, D122K)
T3 construct: NylCp2 alpha subunit with D122K; also called α subunit of NylCp2-K^122; source: E. coli JM109, purified with the beta subunit as the active enzyme
T3 sequence (looked up): T1 sequence (looked up) with G122K

[4] = target: T4, NylCp2-V^122 alpha subunit (D122V) (Arthrobacter, UniProt Q79F77 1-266, D122V)
T4 construct: NylCp2 alpha subunit with D122V; also called α subunit of NylCp2-V^122; source: E. coli JM109, purified with the beta subunit as the active enzyme
T4 sequence (looked up): T1 sequence (looked up) with G122V

[5] = target: T5, NylCp2-Y^130 alpha subunit (H130Y) (Arthrobacter, UniProt Q79F77 1-266, H130Y)
T5 construct: NylCp2 alpha subunit with H130Y; also called α subunit of NylCp2-Y^130; source: E. coli JM109, purified with the beta subunit as the active enzyme
T5 sequence (looked up): T1 sequence (looked up) with G122D, H130Y

[6] = target: T6, NylCp2-G^122Y^130 alpha subunit (D122G/H130Y) (Arthrobacter, UniProt Q79F77 1-266, D122G | H130Y)
T6 construct: NylCp2 alpha subunit with D122G and H130Y; also called α subunit of NylCp2-G^122Y^130; source: E. coli JM109, purified with the beta subunit as the active enzyme
T6 sequence (looked up): T1 sequence (looked up) with H130Y

Measured: binding result

B1: NylCp2 beta subunit (9 kDa) (domain or fragment, Arthrobacter, UniProt Q79F77 267-355, looked up)
chain: TTISAIVTNVRMSPVELNQFAKQVHSSMHRGIQPFHTDMDGDTLFAVTTDEIDLPTTPGSSRGRLSVNATALGAIASEVMWDAVLEAGK
notes: NylCp2, beta subunit made by autocleavage of the 355-residue precursor between Asn266 and Thr267; the same in the wild type and in the mutants crystallised here (all their substitutions lie in the alpha subunit); also called β subunit; source: E. coli JM109, purified with the alpha subunit as the active enzyme
binds: all assays above

— publication PMC6021441, “Structural basis of the correct subunit assembly, aggregation, and intracellular degradation of nylon hydrolase” (Scientific Reports, 2018)
